Data on three substances can be found in paper PMC12329711, “(Reverse) Evolution of a Promiscuous Isochorismate Pyruvate Lyase into an Efficient Chorismate Mutase” (Biochemistry, 2025).

What all share (experiment): purified protein
Holding throughout (settings): pH 7.5; 30.0 °C

The test system of data set [1] is C=C(O[C@@H]1C=C(C(=O)O)C=C[C@H]1O)C(=O)O. In kind it is biochemical, Escherichia coli.
The test system is the same in data set [2].
In data set [3] the test system is C=C(O[C@H]1C=CC=C(C(=O)O)[C@@H]1O)C(=O)O.

Broadly, the Km is the concentration of substrate that gives half-maximal velocity. Consider (Escherichia coli K-12), for which, in data set [1], the Km came out at 240 µM.
As usually defined, the kcat/Km is the second-order rate constant that governs catalysis at low substrate concentration. (Mycobacterium tuberculosis H37Rv): the Km in data set [2] turned out to be 170 ± 16 µM. Besides, in data set [3], the Km was found to be 200 ± 30 µM and the kcat/Km was 4.4 ± 0.4 M⁻¹ s⁻¹.
Consider (Pseudomonas aeruginosa PAO1), for which the Km in data set [2] worked out at 41 ± 5 µM.
